Source: US20200360486A1

Assays:
[1] = molecular target: Cy3-conjugated K9-C-peptide (C-peptide bound to the elastin-like polypeptide composed of 9 [(VPGVG)11(VPGKG)1(VPGVG)1] repeating units), as hydrogel on an amine array; experiment: cell-based or functional assay
[2] = tested on: Cy3-conjugated K9-C-peptide (C-peptide bound to the elastin-like polypeptide composed of 9 [(VPGVG)11(VPGKG)1(VPGVG)1] repeating units), as hydrogel on an amine array

Chain of Cy3-conjugated K9-C-peptide (C-peptide bound to the elastin-like polypeptide composed of 9 [(VPGVG)11(VPGKG)1(VPGVG)1] repeating units), as hydrogel on an amine array (chain, as listed by the source): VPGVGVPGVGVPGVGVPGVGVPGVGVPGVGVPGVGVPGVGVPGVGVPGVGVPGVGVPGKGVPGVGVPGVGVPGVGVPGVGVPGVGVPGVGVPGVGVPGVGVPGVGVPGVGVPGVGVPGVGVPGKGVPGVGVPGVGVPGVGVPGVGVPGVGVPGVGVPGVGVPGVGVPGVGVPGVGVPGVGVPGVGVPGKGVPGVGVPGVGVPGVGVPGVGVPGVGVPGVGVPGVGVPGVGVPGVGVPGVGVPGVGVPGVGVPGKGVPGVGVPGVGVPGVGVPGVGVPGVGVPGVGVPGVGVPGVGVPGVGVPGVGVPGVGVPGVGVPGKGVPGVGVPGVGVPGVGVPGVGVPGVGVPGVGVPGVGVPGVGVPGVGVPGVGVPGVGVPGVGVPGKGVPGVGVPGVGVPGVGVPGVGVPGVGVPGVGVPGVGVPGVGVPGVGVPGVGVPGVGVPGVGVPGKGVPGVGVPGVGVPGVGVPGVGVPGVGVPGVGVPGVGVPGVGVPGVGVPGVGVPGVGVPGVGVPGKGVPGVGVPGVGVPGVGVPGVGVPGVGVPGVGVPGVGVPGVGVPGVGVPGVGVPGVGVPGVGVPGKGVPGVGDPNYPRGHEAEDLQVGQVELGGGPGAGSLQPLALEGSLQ

Row | Substance | EC50 of on-chip degradation of Cy3-conjugated K9-C-peptide hydrogel versus protease concentration [1] [U/ml] | highest degradation rate of the hydrogel, at 120 min (time course) [2] [% at 120 min] | hydrogel degraded after the first elastase-2 treatment (repeated every 30 min) [2] | maximum degradation rate, after the fifth elastase-2 treatment [2]
1 | pepsin (enzyme) | 510 | – | – | –
2 | elastase-2 | – | 72.3 | 48.6+/-0.8% | 89.7+/-0.2%
3 | trypsin (enzyme) | 125 | – | – | –

Further lines, with some results ahead:

Row | EC50 of on-chip degradation of Cy3-conjugated K9-C-peptide hydrogel versus protease concentration [1] [U/ml] | Substance | highest degradation rate of the hydrogel, at 120 min (time course) [2] [% at 120 min] | hydrogel degraded after the first elastase-2 treatment (repeated every 30 min) [2] | maximum degradation rate, after the fifth elastase-2 treatment [2]
4 | 0.23 | elastase-2 (enzyme) | – | – | –
5 | 0.17 | collagenase-2 (enzyme) | – | – | –
